Patent US20130309172

Tests used:
[1] = system: AuNP-PVGLIGC-PEG (cleavable)
[2] = biological target: AuNP-GIVGPLC-PEG (noncleavable negative control)
[3] = biological target: AuNP-PVGLIGC-PEG (cleavable); remark: listed apart in the source

Row | Molecule | cleavage of the peptide coating of the AuNP conjugate (UV-vis) [1] | cleavage of the peptide coating of the AuNP conjugate (DLS, zeta potential, UV-vis, TEM, FFF) [2] | cleavage of the peptide coating of the AuNP conjugate (DLS, zeta potential, UV-vis, TEM, FFF) [3]
1 | trypsin | Cleavable AuNPs treated with trypsin did not exhibit cleavage | – | –
2 | human matrix metalloproteinase (MMP-2) (protein) YNFFPRKPKWDKNQITYRIIGYTPDLDPETVDDAFARAFQVWSDVTPLRFSRIHDGEADIMINFGRWEHGDGYPFDGKDGLLAHAFAPGTGVGGDSHFDDDELWTLGEGQVVRVKYGNADGEYCKFPFLFNGKEYNSCTDTGRSDGFLWCSTTYNFEKDGKYGFCPHEALFTMGGNAEGQPCKFPFRFQGTSYDSCTTEGRTDGYRWCGTTEDYDRDKKYGFCPETAMSTVGGNSEGAPCVFPFTFLGNKYESCTSAGRSDGKMWCATTANYDDDRKWGFCPDQGYSLFLVAAHEFGHAMGLEHSQDPGALMAPIYTYTKNFRLSQDDIKGIQELYGASPDIDLGTGPTPTLGPVTPEICKQDIVFDGIAQIRGEIFFFKDRFIWRTVTPRDKPMGPLLVATFWPELPEKIDAVYEAPQEEKAVFFAGNEYWIYSASTLERGYPKPLTSLGLPPDVQRVDAAFNWSKNKKTYIFAGDKFWRYNEVKKKMDPGFPKLIADAWNAIPDNLDAVVDLQGGGHSYFFKGAYYLKLENQSLKSVKFGSIKSDWLGC | – | Non-cleavable control and blocker control AuNPs exhibited no cleavage | cleavable AuNPs were converted to denuded AuNPs following exposure to MMP-2
